Laboratory results: patent US6890738

Target: prolactin receptor on Nb2 T lymphoma cells (rat) (UniProt P05710)
Assay: cell-based or functional assay

Chain of UniProt P05710 (P05710 20-610): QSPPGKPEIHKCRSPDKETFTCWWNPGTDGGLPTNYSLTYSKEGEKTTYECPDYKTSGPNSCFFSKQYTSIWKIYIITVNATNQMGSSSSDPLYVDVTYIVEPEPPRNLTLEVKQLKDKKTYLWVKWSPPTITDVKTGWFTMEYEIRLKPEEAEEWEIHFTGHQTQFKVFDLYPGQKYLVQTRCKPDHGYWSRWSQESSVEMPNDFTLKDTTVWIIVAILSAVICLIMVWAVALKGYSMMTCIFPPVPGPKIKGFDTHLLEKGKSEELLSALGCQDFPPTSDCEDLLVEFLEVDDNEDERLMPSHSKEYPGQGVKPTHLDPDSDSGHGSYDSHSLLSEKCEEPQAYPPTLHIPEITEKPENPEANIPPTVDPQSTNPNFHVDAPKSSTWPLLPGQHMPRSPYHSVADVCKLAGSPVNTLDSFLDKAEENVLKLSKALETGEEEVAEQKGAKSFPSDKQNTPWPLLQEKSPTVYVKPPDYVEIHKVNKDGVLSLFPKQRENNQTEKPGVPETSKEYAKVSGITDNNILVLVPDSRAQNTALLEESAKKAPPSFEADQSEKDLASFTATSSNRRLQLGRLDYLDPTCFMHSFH

| inhibition of the Nb2 cell growth response to 400 pg/ml wild-type PRL by 200 pg/ml aspartate mutant (MTS assay) [%] | reduction of the Nb2 cell growth response to 800 pg/ml wild-type PRL by 200 pg/ml glutamate mutant (MTS assay) (fraction of growth response) | Substance |
| --- | --- | --- |
| 75 | – | human prolactin aspartate mutant (serine 179 substituted with aspartate) (from UniProt P01236 29-227) (ligand) |
| – | 0.5 | human prolactin glutamate mutant (serine 179 substituted with glutamate) (from UniProt P01236 29-227) (ligand) |
